Test results: publication PMC12700104

Molecular target: YxiD^CTD (C-terminal domain of YxiD, Pro428-Pro534), Bacillus subtilis 6633 (Bacillus subtilis 6633 (Bacillus subtilis subsp. spizizenii ATCC 6633))
Test: ITC; 15 uM YxiD^CTD in the cell titrated with 150 uM YxxD in the syringe; 25°C; 20 mM HEPES pH 7.5, 150 mM NaCl; OneSite binding model

B1: YxxD immunity protein, Bacillus subtilis 6633 (natural protein)
chain: MSYNFIKSNKENDFYPVNQSEIEEVEKNLNLKLPSELVNFYLEVGYGFIKGSEFNTNRILDPYSVRDFRLRINDFEFYPDIEIYDEFENDKLIFFEGSESALMSIELNDNNKNPIYYYDIQIATSLTEFLRKIEENDQYYLDLLDDE
- Kd: 9.4 nM
- dH: -10.2 kcal/mol
- stoichiometry N: 0.975 sites
